Results as given in the supplement of paper PMC10567573.

B1: ZNF263 (parent)
chain: HLTRHQRTHTGEKPYKCTLCGENF
B2: SMAD6 (parent)
chain: SGLVRRLWRSRVVPDREEGGSGGG

Variants of: B1
Test: protein stability index of a GFP-peptide fusion (GPS, HEK-293T) (PSI 1-6); higher = more stable
Conditions: c terminus: a fixed tail appended
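Note: lentivirally expressed fusions sorted by FACS into six bins by GFP to DsRed ratio, PSI derived from sequencing read proportions per bin multiplied by bin number.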

Protein stability index: each site, then its substitutions
R7: P 2.63; Q 2.96; S 3.36; T 3.6; V 2.96; W 2.12; Y 2.9
T8: A 3.44; C 2.99; D 3.52; E 3.4; F 2.46; G 2.9; H 2.78; I 3.1; K 2.38; L 2.78; M 2.5; N 3.22; P 2.54; Q 3.41; R 3.49; S 3.4; V 2.65; W 2.29; Y 2.25
H9: A 2.67; C 2.74; D 2.83; E 3.41; F 2.22; G 3.04; I 2.48; K 3.58; L 2.51; M 2.5; N 2.79; P 2.77; Q 2.67; R 3.11; S 2.71; T 3.04; V 2.65; W 1.89; Y 2.19
T10: A 3.14; C 2.96; D 2.78; E 3.42; F 2.73; G 2.92; H 3.19; I 3.13; K 3.12; L 1.98; M 2.48; N 2.44; P 2.45; Q 3.44; R 3.36; S 3.12; V 2.45; W 2.82; Y 2.58
G11: A 3.15; C 4.07; D 3.25; E 3.92; F 2.72; H 2.83; I 2.46; K 3.06; L 2.99; M 2.84; N 2.98; P 2.86; Q 3.55; R 2.94; S 3.45; T 3.01; V 2.38; W 2.07; Y 2.17
E12: A 3.53; C 2.41; D 2.68; F 2.47; G 2.23; H 3.78; I 2.11; K 3.2; L 2.29; M 2.71; N 2.7; P 2.8; Q 2.74; R 2.55; S 3.19; T 2.59; V 3.08; W 1.87; Y 2.84
K13: A 3.28; C 4.22; D 2.82; E 3.64; F 2.65; G 2.92; H 2.9; I 2.13; L 2.03; M 2.56; N 3.16; P 2.88; Q 3.6; R 2.98; S 3.24; T 3.54; V 2.69; W 2.5; Y 2.74
P14: A 2.79; C 2.52; D 3.65; E 3.21; F 2.78; G 3.58; H 3.01; I 2.9; K 3.31; L 3.14; M 2.63; N 2.92; Q 3.14; R 2.9; S 2.79; T 2.88; V 2.77; W 3.26; Y 3.04
Y15: A 3.23; C 4.52; D 4.21; E 3.69; F 3.31; G 3.29; H 3.24; I 2.85; K 3.11; L 2.81; M 3.18; N 3.29; P 3.1; Q 3.44; R 2.93; S 3.48; T 3; V 3.22; W 2.46
K16: A 3.72; C 2.83; D 3.74; E 3.82; F 2.7; G 3.19; H 2.91; I 2.97; L 2.33; M 3.17; N 2.82; P 3.32; Q 3.17; R 2.87; S 3.19; T 2.9; V 2.3; W 2.78; Y 2.52
C17: A 3.24; D 3.73; E 3.96; F 2.44; G 3.52; H 2.89; I 2.21; K 3.71; L 2.68; M 2.81; N 3.1; P 3.37; Q 3.46; R 2.98; S 3.4; T 3.06; V 3.7; Y 3.05
T18: A 2.94; C 2.54; D 2.75; E 3.78; F 2.56; G 2.45; H 2.65; I 2.36; K 2.98; L 2.49; M 2.42; N 2.81; P 2.4; Q 2.68; R 2.68; S 2.84; V 2.42; W 2.54; Y 3.09
L19: A 3.23; C 3.88; D 3.84; E 3.36; F 2.62; G 2.56; H 2.94; I 3.15; K 3.7; M 2.83; N 3.68; P 2.7; Q 2.98; R 3.03; S 3.14; T 3.64; V 2.86; W 2.75; Y 2.39
C20: A 2.89; D 3.69; E 4.11; F 2.25; G 2.92; H 2.66; I 2.57; K 3.12; L 2.61; M 2.93; N 3.25; P 2.53; Q 3.44; R 3.03; S 3.23; T 3.93; V 3.07; W 2.56; Y 2.77
G21: A 3.27; C 2.73; D 3.26; E 3.58; F 2.43; H 3.46; I 2.41; K 3.42; L 2.58; M 3.06; N 3.02; P 2.68; Q 2.85; R 2.46; S 2.99; T 2.7; V 2.26; W 2.23; Y 2.97
E22: A 2.54; C 2.29; D 3.33; F 1.95; G 2.31; H 3.43; I 2.75; K 2.36; L 2.08; M 2.31; N 2.69; P 2.95; Q 2.38; R 2.29; S 2.9; T 2.58; V 2.17; W 2.13; Y 2.39
N23: A 2.68; C 3.13; D 3.33; E 2.75; F 2.33; G 4.03; H 1.98; I 2.57; K 3.22; L 2.34; M 2.3; P 2.54; Q 2.63; R 3.08; S 2.7; T 2.83; V 1.85; W 2.57; Y 2.53
F24: A 4.22; C 4.06; D 4.62; E 4.08; G 3.67; H 3.46; I 3.02; K 3.12; L 3.44; M 3.58; N 3.7; P 3.14; Q 2.88; R 3.13; S 4.49; T 3.85; V 3.47; W 3.08; Y 2.9

Variants of: B2
Test: as above
Conditions: c terminus: a fixed tail appended

Protein stability index: each site, then its substitutions
S1: C 2.09; H 3.81; I 2.92; M 2.45; Q 5.24
